Experimental data: patent publication US20170137467A1 (CHROMOTEK, published 2017)

Key:
Assay in all cases: positional peptide library pulldown on immobilised Nb, LC-MS of supernatant; signal ratio to control GFP-Nb (1 = not captured, near 0 = captured)
BC2T A6Y = target: T1, BC2T A6Y
T1 construct: positional scanning library member
T1 peptide: Ac-PDRKAYVSHWQQ-NH2
How it was run: (§1)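 Unbound peptide left in supernatant after 1 h pulldown in PBS/0.01% CHAPS measured by reversed-phase LC-MS (8–30% eluent B gradient, 20 min).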

BC2T P1W = target: T2, BC2T P1W
T2 construct: positional scanning library member
T2 peptide: Ac-WDRKAAVSHWQQ-NH2
How it was run: as §1

BC2T R3E = target: T3, BC2T R3E
T3 construct: positional scanning library member
T3 peptide: Ac-PDEKAAVSHWQQ-NH2
How it was run: as §1

BC2T P1D = target: T4, BC2T P1D
T4 construct: positional scanning library member
T4 peptide: Ac-DDRKAAVSHWQQ-NH2
How it was run: as §1

BC2T K4F = target: T5, BC2T K4F
T5 construct: positional scanning library member
T5 peptide: Ac-PDRFAAVSHWQQ-NH2
How it was run: as §1

BC2T P1N = target: T6, BC2T P1N
T6 construct: positional scanning library member
T6 peptide: Ac-NDRKAAVSHWQQ-NH2
How it was run: as §1

BC2T A6S = target: T7, BC2T A6S
T7 construct: positional scanning library member
T7 peptide: Ac-PDRKASVSHWQQ-NH2
How it was run: as §1

BC2T K4W = target: T8, BC2T K4W
T8 construct: positional scanning library member
T8 peptide: Ac-PDRWAAVSHWQQ-NH2
How it was run: as §1

BC2T A6T = target: T9, BC2T A6T
T9 construct: positional scanning library member
T9 peptide: Ac-PDRKATVSHWQQ-NH2
How it was run: as §1

BC2T A6P = target: T10, BC2T A6P
T10 construct: positional scanning library member
T10 peptide: Ac-PDRKAPVSHWQQ-NH2
How it was run: as §1

BC2T A5K = target: T11, BC2T A5K
T11 construct: positional scanning library member
T11 peptide: Ac-PDRKKAVSHWQQ-NH2
How it was run: as §1

BC2T R3H = target: T12, BC2T R3H
T12 construct: positional scanning library member
T12 peptide: Ac-PDHKAAVSHWQQ-NH2
How it was run: as §1

BC2T R3F = target: T13, BC2T R3F
T13 construct: positional scanning library member
T13 peptide: Ac-PDFKAAVSHWQQ-NH2
How it was run: as §1

BC2T R3N = target: T14, BC2T R3N
T14 construct: positional scanning library member
T14 peptide: Ac-PDNKAAVSHWQQ-NH2
How it was run: as §1

BC2T A6Q = target: T15, BC2T A6Q
T15 construct: positional scanning library member
T15 peptide: Ac-PDRKAQVSHWQQ-NH2
How it was run: as §1

BC2T A5Q = target: T16, BC2T A5Q
T16 construct: positional scanning library member
T16 peptide: Ac-PDRKQAVSHWQQ-NH2
How it was run: as §1

BC2T A5R = target: T17, BC2T A5R
T17 construct: positional scanning library member
T17 peptide: Ac-PDRKRAVSHWQQ-NH2
How it was run: as §1

BC2T K4E = target: T18, BC2T K4E
T18 construct: positional scanning library member
T18 peptide: Ac-PDREAAVSHWQQ-NH2
How it was run: as §1

BC2T D2Q = target: T19, BC2T D2Q
T19 construct: positional scanning library member
T19 peptide: Ac-PQRKAAVSHWQQ-NH2
How it was run: as §1

BC2T P1R = target: T20, BC2T P1R
T20 construct: positional scanning library member
T20 peptide: Ac-RDRKAAVSHWQQ-NH2
How it was run: as §1

BC2T S8E = target: T21, BC2T S8E
T21 construct: positional scanning library member
T21 peptide: Ac-PDRKAAVEHWQQ-NH2
How it was run: as §1

BC2T S8K = target: T22, BC2T S8K
T22 construct: positional scanning library member
T22 peptide: Ac-PDRKAAVKHWQQ-NH2
How it was run: as §1

B1: BC2-NbR106E (VHH)
VHH: QVQLVESGGGLVQPGGSLTLSCTASGFTLDHYDIGWFRQAPGKEREGVSCINNSDDDTYYADSVKGRFTIFMDNAKDTVYLQMNSLKPEDTAIYYCAEARGCKRGEYEYDFWGQGTQVTVSS
notes: headlock mutant of BC2-Nb; immobilised on beads in this assay
Binder B1 has a ratio (BC2T A6Y) of 1, a ratio (BC2T P1W) of 0.2 and a ratio (BC2T R3E) of 1. It also gave a ratio (BC2T P1D) of 0.8, a ratio (BC2T K4F) of 0.6 and a ratio (BC2T P1N) of 0.7. It also gave a ratio (BC2T A6S) of 0.6, a ratio (BC2T K4W) of 0.7 and a ratio (BC2T A6T) of 0.3. The ratio (BC2T A6P) was 1.1, the ratio (BC2T A5K) was 0 and the ratio (BC2T R3H) was 0.5. The ratio (BC2T R3F) was 1, the ratio (BC2T R3N) was 0.9 and the ratio (BC2T A6Q) was 1. The ratio (BC2T A5Q) was 0.2, the ratio (BC2T A5R) was 0 and the ratio (BC2T K4E) was 0.9. It also gave a ratio (BC2T D2Q) of 0.1 and a ratio (BC2T P1R) of 0.2.

B2: BC2 nanobody (VHH)
VHH: QVQLVESGGGLVQPGGSLTLSCTASGFTLDHYDIGWFRQAPGKEREGVSCINNSDDDTYYADSVKGRFTIFMDNAKDTVYLQMNSLKPEDTAIYYCAEARGCKRGRYEYDFWGQGTQVTVSS
notes: immobilised on beads in this assay; also called BC2-Nb; BC2 nanotrap (immobilised)
B2 showed a ratio (BC2T S8E) of 0.7.

B3: BC2-NbR106S (VHH)
VHH: QVQLVESGGGLVQPGGSLTLSCTASGFTLDHYDIGWFRQAPGKEREGVSCINNSDDDTYYADSVKGRFTIFMDNAKDTVYLQMNSLKPEDTAIYYCAEARGCKRGSYEYDFWGQGTQVTVSS
notes: as for B1
Work on B3 yielded a ratio (BC2T S8K) of 0.9.
